Measurements reported in patent publication EP4703474A1, “ANTI-LRRC15 ANTIBODY” (priority 2023, dated 2024).

B1: H02L01-PBD (conjugate)
heavy: EVQLVESGGGLVQPGGSLRLSCAASGFTFRDYYMAWVRQAPGKGLEWVSSIGFDESRTYYADSVKGRFTISRDDSKNTLYLQMNSLRAEDTAVYYCARHGVSYYSGDNWFAYWGQGTLVTVSSASTKGPSVFPLAPSSKSTSGGTAALGCLVKDYFPEPVTVSWNSGALTSGVHTFPAVLQSSGLYSLSSVVTVPSSSLGTQTYICNVNHKPSNTKVDKKVEPKSCDKTHTCPPCPAPEAAGGPSVFLFPPKPKDTLMISRTPEVTCVVVDVSHEDPEVKFNWYVDGVEVHNAKTKPREEQYNSTYRVVSVLTVLHQDWLNGKEYKCKVSNKALAAPIEKTISKAKGQPREPQVYTLPPSREEMTKNQVSLTCLVKGFYPSDIAVEWESNGQPENNYKTTPPVLDSDGSFFLYSKLTVDKSRWQQGNVFSCSVMHEALHNHYTQKSLSLSPGK
light: DIQMTQSPSSLSASVGDRVTITCKSSQGLLYSGDQKNYLAWYQQKPGKAPKLLIYWASTRQSGVPSRFSGSGSGTDFTLTISSLQPEDFATYYCQQYYDPPYTFGQGTKVEIKRTVAAPSVFIFPPSDEQLKSGTASVVCLLNNFYPREAKVQWKVDNALQSGNSQESVTEQDSKDSTYSLSSTLTLSKADYEKHKVYACEVTHQGLSSPVTKSFNRGEC
B2: H02L01-V1-PBD (conjugate)
heavy: EVQLVESGGGLVQPGGSLRLSCAASGFTFRDYYMAWVRQAPGKGLEWVSSIGFDESRTYYADSVKGRFTISRDDSKNTLYLQMNSLRAEDTAVYYCARHGVSKYSGDNWFAYWGQGTLVTVSSASTKGPSVFPLAPSSKSTSGGTAALGCLVKDYFPEPVTVSWNSGALTSGVHTFPAVLQSSGLYSLSSVVTVPSSSLGTQTYICNVNHKPSNTKVDKKVEPKSCDKTHTCPPCPAPEAAGGPSVFLFPPKPKDTLMISRTPEVTCVVVDVSHEDPEVKFNWYVDGVEVHNAKTKPREEQYNSTYRVVSVLTVLHQDWLNGKEYKCKVSNKALAAPIEKTISKAKGQPREPQVYTLPPSREEMTKNQVSLTCLVKGFYPSDIAVEWESNGQPENNYKTTPPVLDSDGSFFLYSKLTVDKSRWQQGNVFSCSVMHEALHNHYTQKSLSLSPGK
light: DIQMTQSPSSLSASVGDRVTITCKSSQGLLYSGDQKNYLAWYQQKPGKAPKLLIYWASTRQSGVPSRFSGSGSGTDFTLTISSLQPEDFATYYCQQYYDPPYTFGQGTKVEIKRTVAAPSVFIFPPSDEQLKSGTASVVCLLNNFYPREAKVQWKVDNALQSGNSQESVTEQDSKDSTYSLSSTLTLSKADYEKHKVYACEVTHQGLSSPVTKSFNRGEC

Experiments:
[1] = system: LRRC15-positive human glioblastoma cell line U118MG; test: In vivo antitumor effect, U118MG subcutaneous transplant model; settings: 0.4 mg/kg, tail vein, on Day 17, female SCID mice
Experimental: (§1) The antitumor effects of the antibody-drug conjugates were evaluated by using animal models in which cells of a human tumor cell line had been transplanted into immunodeficient mice, or cells of a mouse tumor cell line had been transplanted into immunocompetent mice. 4 to 6 Week-old SCID mice (CB17/Icr-Prkdc[scid]/CrlCrlj, Jackson Laboratory Japan, Inc.), NSG mice (NOD.Cg-Prkdcscid Il2rgtm1Wjl/SzJ, Jackson Laboratory Japan, Inc.), or B6J mice (C57BL/6J, Jackson Laboratory Japan, Inc.) were habituated for 3 days or more under SPF conditions before experimental use. The mice were fed with sterilized solid feed and given sterilized tap water. The major and minor diameters of the transplanted tumors were measured twice a week with an electronic digital caliper (Mitutoyo Corporation), and the estimated tumor volume was calculated using the following formula. Estimated tumor volume (mm^3) = 1/2 × major diameter (mm) × [minor diameter (mm)]^2 All antibody-drug conjugates were diluted with ABS and administered into the tail vein at doses shown in each Example. In addition, ABS (vehicle) or control hIgG-PBD prepared in Reference Example 4 was administered as the control group, in a similar manner. 5 to 6 Mice were used per group in the experiment. […]

[2] = system: Triple-negative breast carcinoma cell line HCC1806; test: In vivo antitumor effect, HCC1806 subcutaneous transplant model; settings: 0.4 mg/kg, tail vein, on Day 7, female SCID mice
Experimental: as §1, with “experiment. To analyze the LRRC15 expression in mouse tumor models, immunohistochemical staining of LRRC15 was performed.” for “experiment.”

[3] = system: Mouse colorectal carcinoma cell line CMT93; test: In vivo antitumor effect, CMT93 subcutaneous transplant model; settings: 0.4 mg/kg, tail vein, on Day 7, male B6J mice
Experimental: as §1, with “experiment. To analyze the LRRC15 expression in mouse tumor models, immunohistochemical staining of LRRC15 was performed.” for “experiment.”

| Molecule | antitumor effect (estimated tumor volume) [1] | antitumor effect (estimated tumor volume) [2] | antitumor effect (estimated tumor volume) [3] |
| --- | --- | --- | --- |
| B1 | antitumor activity higher than that of the vehicle and the control hIgG-PBD | antitumor activity higher than that of the vehicle | antitumor activity higher than that of the vehicle and the control hIgG-PBD |
| B2 | antitumor activity higher than that of the vehicle and the control hIgG-PBD | antitumor activity higher than that of the vehicle | antitumor activity higher than that of the vehicle and the control hIgG-PBD |
